According to the supplement of paper PMC7125110:
± gives the standard error. For part of these data: Fewer inactive variants are shown than the library holds.

B1: glmS ribozyme (parent)
chain: AUAAAAGCGCCAGAACUACAGAAAUGUAGUUGACGAGGAGGAGGUUUAUCGAAUUUUCGGCGGAUGCCUCCAAA

Key:
Conditions in all cases: with glucosamine-6-phosphate
glucosamine-6-phosphate [1] = variants of: B1; assay: kcat; higher = faster cleavage; RNA array
Procedure, shortened: (§1)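 Over ~14 h at 37 °C, tiles were imaged as glucosamine-6-phosphate (40 μM to 10 mM) in HEPES/KCl/Mg(OAc)2 buffer flowed across sequenced MiSeq chips. The chips carried barcoded ribozyme variants transcribed in situ by E. coli RNA polymerase and tracked with a hybridised Cy3 probe. After normalisation to baseline and to non-cleaving reference variants, one- or two-exponential decay fits of per-tile medians gave kobs. kcat and KM followed from weighted Michaelis–Menten fits across concentrations.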

glucosamine-6-phosphate [2] = variants of: B1; assay: self-cleavage kobs at 40 uM GlcN6P; higher = faster cleavage; RNA array
Procedure, shortened: as §1

glucosamine-6-phosphate [3] = variants of: B1; assay: self-cleavage kobs at 160 uM GlcN6P; higher = faster cleavage; RNA array
Procedure, shortened: as §1

glucosamine-6-phosphate [4] = variants of: B1; assay: KM; higher = weaker cofactor use; RNA array
Procedure, shortened: as §1

glucosamine-6-phosphate [5] = variants of: B1; assay: self-cleavage kobs at 640 uM GlcN6P; higher = faster cleavage; RNA array
Procedure, shortened: as §1

glucosamine-6-phosphate [6] = variants of: B1; assay: self-cleavage kobs at 2500 uM GlcN6P; higher = faster cleavage; RNA array
Procedure, shortened: as §1

glucosamine-6-phosphate [7] = variants of: B1; assay: self-cleavage kobs at 10000 uM GlcN6P; higher = faster cleavage; RNA array
Procedure, shortened: as §1

| Variant | kcat (glucosamine-6-phosphate [1]) [s⁻¹] | self-cleavage kobs at 40 uM GlcN6P (glucosamine-6-phosphate [2]) [s⁻¹] | self-cleavage kobs at 160 uM GlcN6P (glucosamine-6-phosphate [3]) [s⁻¹] | KM (glucosamine-6-phosphate [4]) [µM] | self-cleavage kobs at 640 uM GlcN6P (glucosamine-6-phosphate [5]) [s⁻¹] | self-cleavage kobs at 2500 uM GlcN6P (glucosamine-6-phosphate [6]) [s⁻¹] | self-cleavage kobs at 10000 uM GlcN6P (glucosamine-6-phosphate [7]) [s⁻¹] |
| --- | --- | --- | --- | --- | --- | --- | --- |
| U30G A48G | < 1e-05 | < 1e-05 | < 1e-05 | – | – | – | – |
| U31G A53C | 0.00293 ± 0.00056 | 3.19e-05 ± 1.2e-05 | 0.000223 ± 5.6e-05 | 2500 ± 770 | 0.000646 ± 0.00015 | 0.00165 ± 0.00028 | 0.00219 ± 0.00037 |
| U30G A39U | 0.00794 ± 0.0035 | 0.000127 ± 2.3e-05 | 0.000455 ± 8.4e-05 | – | 0.000857 ± 0.00016 | 0.00224 ± 0.00096 | 0.00645 ± 0.00095 |
| U30C U54G | 0.000209 ± 1.3e-05 | – | 9.02e-05 ± 4.2e-05 | 411 ± 120 | 0.000118 ± 2.8e-05 | 0.00018 ± 3.5e-05 | 0.000203 ± 2.5e-05 |
| U31A C58A | 0.00103 ± 0.00024 | – | – | – | – | – | 0.000242 ± 3.7e-05 |
| U30G C67A | 0.00145 ± 0.00047 | 6.13e-05 ± 1.3e-05 | 0.000175 ± 3.3e-05 | – | 0.000561 ± 9.1e-05 | 0.00063 ± 0.00017 | 0.00188 ± 0.00029 |
| U31G C34A G37U C67U | 3.45e-05 ± 1.2e-05 | – | – | – | – | – | – |
| U31C G37U G62C A64U C70A | < 1e-05 | < 1e-05 | – | – | – | – | < 1e-05 |
| U30G C50U | < 1e-05 | – | < 1e-05 | – | – | – | – |
| U31A G44A | 0.00023 ± 5.7e-05 | – | – | 4780 ± 2400 | – | 9.2e-05 ± 1.5e-05 | 0.000151 ± 2.1e-05 |
| U30G U31G | 0.0304 ± 0.012 | 0.00149 ± 0.00022 | – | – | 0.0102 ± 0.0017 | – | 0.036 ± 0.0081 |
| U30G U69G | 3.4e-05 ± 1.2e-05 | – | 5.83e-05 ± 1.7e-05 | – | 6.34e-05 ± 1.3e-05 | 3.55e-05 ± 8.8e-06 | – |
| U31C C58U | 2.26e-05 ± 7.2e-06 | – | – | – | – | 2.64e-05 ± 1.3e-05 | – |
| U31A G41C | 0.000118 ± 1.6e-05 | – | – | 501 ± 200 | 6.84e-05 ± 1.6e-05 | 9.73e-05 ± 2.2e-05 | – |
| U31C A53U | 0.00494 ± 0.0007 | 9.39e-05 ± 8.5e-06 | 0.000269 ± 4.7e-05 | 2460 ± 510 | 0.000925 ± 8.8e-05 | 0.00236 ± 0.00022 | 0.00421 ± 0.00036 |
| U31C A53G | 0.00573 ± 0.0015 | 0.000158 ± 1.8e-05 | 0.000305 ± 5.6e-05 | 1960 ± 740 | 0.00167 ± 0.00042 | 0.00309 ± 0.00042 | 0.00495 ± 0.00059 |
| U31A G63U U69G | 3.2e-05 ± 9.9e-06 | – | – | – | – | – | – |

| Variant | kcat (glucosamine-6-phosphate [1]) [s⁻¹] | self-cleavage kobs at 40 uM GlcN6P (glucosamine-6-phosphate [2]) [s⁻¹] | self-cleavage kobs at 160 uM GlcN6P (glucosamine-6-phosphate [3]) [s⁻¹] | KM (glucosamine-6-phosphate [4]) [µM] | self-cleavage kobs at 640 uM GlcN6P (glucosamine-6-phosphate [5]) [s⁻¹] | self-cleavage kobs at 2500 uM GlcN6P (glucosamine-6-phosphate [6]) [s⁻¹] | self-cleavage kobs at 10000 uM GlcN6P (glucosamine-6-phosphate [7]) [s⁻¹] |
| --- | --- | --- | --- | --- | --- | --- | --- |
| U31C C68G | 1.29e-05 ± 2.8e-06 | – | – | – | – | – | – |
| U31A C50A | 1.34e-05 ± 6.2e-07 | < 1e-05 | < 1e-05 | 605 ± 190 | < 1e-05 | – | – |
| U31C A39U | 0.00686 ± 0.0022 | 7.06e-05 ± 8.4e-06 | 0.000146 ± 1.5e-05 | 6250 ± 2600 | 0.000692 ± 6.8e-05 | 0.00175 ± 0.00023 | 0.00432 ± 0.00036 |
| U31C U65A | 0.000435 ± 5.4e-05 | – | 3.17e-05 ± 1.3e-05 | 2000 ± 480 | 0.000114 ± 1.8e-05 | 0.000217 ± 3.2e-05 | 0.000385 ± 5.2e-05 |
| U31C C67U | 0.00122 ± 0.00016 | 4.68e-05 ± 7.4e-06 | 0.000125 ± 2e-05 | 1290 ± 260 | 0.000375 ± 4.8e-05 | 0.000785 ± 0.00011 | 0.00115 ± 0.00016 |
| U31C C67G | 4.05e-05 ± 1e-06 | < 1e-05 | – | 467 ± 76 | 2.33e-05 ± 8.8e-06 | 3.49e-05 ± 6.3e-06 | 3.83e-05 ± 5.5e-06 |
| U31A A52G | 0.00103 ± 0.00022 | – | 4.63e-05 ± 1.3e-05 | 4620 ± 1600 | 0.000142 ± 2.3e-05 | 0.000305 ± 4.3e-05 | 0.000752 ± 7.9e-05 |
| U31C U46G | 0.000788 ± 0.00029 | – | – | – | 0.000198 ± 3.6e-05 | 0.000722 ± 0.00013 | 0.000568 ± 7.8e-05 |
| U31C U46A | 0.000286 ± 7.3e-06 | – | – | 2230 ± 110 | 6.31e-05 ± 9.4e-06 | 0.000152 ± 2.9e-05 | 0.000234 ± 3.3e-05 |
| U31C G41U | 0.000175 ± 1.4e-05 | – | – | 1350 ± 260 | 5.36e-05 ± 1e-05 | 0.000117 ± 1.7e-05 | 0.000153 ± 2e-05 |
| U31C A64G | 0.00541 ± 0.0022 | 7.83e-05 ± 1.1e-05 | 0.000159 ± 2.1e-05 | – | 0.00109 ± 0.00013 | 0.00224 ± 0.00024 | 0.00363 ± 0.00047 |
| U31C A64U | < 1e-05 | – | – | – | – | – | – |
| U30G A36G C71G | 1.69e-05 ± 3.9e-06 | < 1e-05 | – | – | – | < 1e-05 | < 1e-05 |
| U30C U46C C50U U69C | 1.66e-05 ± 5e-06 | – | – | – | – | – | – |
| U31G A33U | 0.000102 ± 8.8e-06 | – | – | 4090 ± 910 | – | 3.73e-05 ± 1.2e-05 | 7.23e-05 ± 1.2e-05 |
| U31G A33C | 3.39e-05 ± 1.6e-06 | – | – | 4180 ± 650 | – | – | 2.4e-05 ± 8.6e-06 |
| U31A A39G | 0.0529 ± 0.014 | 0.000491 ± 7.7e-05 | 0.00202 ± 0.00038 | 4340 ± 1300 | 0.00495 ± 0.0018 | 0.0245 ± 0.0078 | 0.0363 ± 0.0095 |
